Experimental data: paper PMC2930513

Assays:
[1] = molecular target: HIV-1 BaL Env trimer (cleaved gp120/gp41) on Gag-Env VLPs (HIV-1 strain BaL); assay: native gel or EMSA
[2] = molecular target: HIV-1 JR-FL Env trimer (cleaved gp120/gp41) from JR-FL Gag-Env VLPs (HIV-1 strain JR-FL); assay: native gel or EMSA

Substance “HIV-1 BaL Env trimer (cleaved gp120/gp41) on Gag-Env VLPs (complex)” has a stoichiometry N [1] of 3.
“HIV-1 JR-FL Env trimer (cleaved gp120/gp41) from JR-FL Gag-Env VLPs (complex)” gave a stoichiometry N [2] of 3.
